Experimental data taken from patent publication US20170183403A1.
Read-outs that look alike come from different tables or passages of the source. Blank lines part the entries; values can stand above or below the binder they belong to.

How the values were obtained:
[1] = target: human interleukin-2 (human) (UniProt P60568); test: sandwich ELISA, biotinylated MAB602 on hIL-2 captured by coated 5344, no competitor
Reference peptide no. 53 [2] = test: peptide microarray (RepliTope), Ala mutagenesis set
Reference peptide no. 47 = target: T1, Reference peptide no. 47; test: as above
T1 sequence (peptide): YKNPKLTRMLTFKFA

Reference peptide no. 54 [3] = test: as above
Reference peptide no. 44 = target: T2, Reference peptide no. 44; test: as above
T2 sequence (peptide): PKLTRMLTAKFYMPK

Reference peptide no. 13 [4] = target: T3, Reference peptide no. 13; test: as above
T3 sequence (peptide): TRMLTFKFYMPKKAT

Reference peptide no. 10 [5] = target: T4, Reference peptide no. 10; test: as above
T4 sequence (peptide): INNYKNPKLTRMLTF

Reference peptide no. 11 [6] = target: T5, Reference peptide no. 11; test: as above
T5 sequence (peptide): YKNPKLTRMLTFKFY

Reference peptide no. 52 = target: T6, Reference peptide no. 52; test: as above
T6 sequence (peptide): YKNPKLTRMLTAKFA

Reference peptide no. 49 = target: T7, Reference peptide no. 49; test: as above
T7 sequence (peptide): TRMLTFKFAMPKKAT

Reference peptide no. 12 [7] = target: T8, Reference peptide no. 12; test: as above
T8 sequence (peptide): PKLTRMLTFKFYMPK

Reference peptide no. 48 = target: T9, Reference peptide no. 48; test: as above
T9 sequence (peptide): PKLTRMLTFKFAMPK

Reference peptide no. 45 = target: T10, Reference peptide no. 45; test: as above
T10 sequence (peptide): TRMLTAKFYMPKKAT

Reference peptide no. 43 = target: T11, Reference peptide no. 43; test: as above
T11 sequence (peptide): YKNPKLTRMLTAKFY

Reference peptide no. 42 = target: T12, Reference peptide no. 42; test: as above
T12 sequence (peptide): INNYKNPKLTRMLTA

Reference peptide no. 13 [8] = target: T3, Reference peptide no. 13; test: peptide microarray (RepliTope)
Reference peptide no. 10 [9] = target: T4, Reference peptide no. 10; test: peptide microarray (RepliTope)
Reference peptide no. 22 = target: T13, Reference peptide no. 22; test: peptide microarray (RepliTope)
T13 sequence (peptide): KPLEEVLNLAQSKNF

Reference peptide no. 11 [10] = target: T5, Reference peptide no. 11; test: peptide microarray (RepliTope)
Reference peptide no. 26 = target: T14, Reference peptide no. 26; test: peptide microarray (RepliTope)
T14 sequence (peptide): KNFHLRPRDLISNIN

Reference peptide no. 23 = target: T15, Reference peptide no. 23; test: peptide microarray (RepliTope)
T15 sequence (peptide): EEVLNLAQSKNFHLR

Reference peptide no. 12 [11] = target: T8, Reference peptide no. 12; test: peptide microarray (RepliTope)
Reference peptide no. 25 = target: T16, Reference peptide no. 25; test: peptide microarray (RepliTope)
T16 sequence (peptide): AQSKNFHLRPRDLIS

Reference peptide no. 24 = target: T17, Reference peptide no. 24; test: peptide microarray (RepliTope)
T17 sequence (peptide): LNLAQSKNFHLRPRD

murine IL-2 (mouse) = murine IL-2 (mouse) (UniProt P04351); test: SPR, MAB602 amine-coupled on chip, mIL-2 at 1 nM or more
[12] = target: human interleukin-2 (human) (UniProt P60568); test: SPR, antibody amine-coupled on GLM chip, hIL-2 in solution
Reference peptide no. 53 [13] = test: peptide microarray (RepliTope), Ala mutagenesis set; remark: listed apart in the source
Reference peptide no. 54 [14] = test: as above; remark: listed apart in the source

Chain of human interleukin-2 (human) (P60568 21-153 limits assumed): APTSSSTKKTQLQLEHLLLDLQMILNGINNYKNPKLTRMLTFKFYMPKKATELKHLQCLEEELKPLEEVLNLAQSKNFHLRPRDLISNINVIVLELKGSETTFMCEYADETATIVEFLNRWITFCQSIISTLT
Chain of murine IL-2 (mouse) (P04351 21-169 limits assumed): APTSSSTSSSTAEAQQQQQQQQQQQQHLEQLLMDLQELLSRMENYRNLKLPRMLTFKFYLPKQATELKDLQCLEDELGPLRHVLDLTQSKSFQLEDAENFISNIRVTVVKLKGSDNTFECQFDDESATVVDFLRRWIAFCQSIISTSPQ

- absorbance (OD450) [1]: 1.1 OD450
- signal intensity after subtraction of control signal (Reference peptide no. 13 [8]): 5250 AU
- signal intensity after subtraction of control signal (Reference peptide no. 10 [9]): 46000 AU
- signal intensity after subtraction of control signal (Reference peptide no. 22): 5000 AU
- signal intensity after subtraction of control signal (Reference peptide no. 11 [10]): 49700 AU
- signal intensity after subtraction of control signal (Reference peptide no. 26): 7510 AU
- signal intensity after subtraction of control signal (Reference peptide no. 23): 13300 AU
- signal intensity after subtraction of control signal (Reference peptide no. 12 [11]): 28800 AU
- signal intensity after subtraction of control signal (Reference peptide no. 25): 5220 AU
- signal intensity after subtraction of control signal (Reference peptide no. 24): 3290 AU
- response units (RU) (murine IL-2 (mouse)): > 10 RU
- Kd [12]: 9.7 nM
- koff [12]: 0.000494 s⁻¹
B1: MAB602 (antibody, from another filing, IgG2a, V domains shown)
VH: EVQLQESGPGLVAPSQSLSITCTVSGFSLTNYDISWIRQPPGKGLEWLGVIWTGGGTNYNSGFMSRLSITKDNSKSQVFLKMNSLQTDDTAIYYCVRQGRTPYWGQGTLVTVSA
VL: DIQVTQSPSSLSVSLGDRVTITCKASKDIYNRLAWYQQKPGNAPRLLISGATSLETGVPSRFSGSGSGKDYTLTITSLQTEDVATYYCQQFWGTPYTFGGGTKLEIKR
- signal intensity after subtraction of control signal (Reference peptide no. 53 [2]): 0 AU
- signal intensity after subtraction of control signal (Reference peptide no. 47): 21400 AU
- signal intensity after subtraction of control signal (Reference peptide no. 54 [3]): 0 AU
- signal intensity after subtraction of control signal (Reference peptide no. 44): 5030 AU
- signal intensity after subtraction of control signal (Reference peptide no. 13 [4]): 5250 AU
- signal intensity after subtraction of control signal (Reference peptide no. 10 [5]): 46000 AU
- signal intensity after subtraction of control signal (Reference peptide no. 11 [6]): 49700 AU
- signal intensity after subtraction of control signal (Reference peptide no. 52): 13100 AU
- signal intensity after subtraction of control signal (Reference peptide no. 49): 3020 AU
- signal intensity after subtraction of control signal (Reference peptide no. 12 [7]): 28800 AU
- signal intensity after subtraction of control signal (Reference peptide no. 48): 13400 AU
- signal intensity after subtraction of control signal (Reference peptide no. 45): 0 AU
- signal intensity after subtraction of control signal (Reference peptide no. 43): 42800 AU
- signal intensity after subtraction of control signal (Reference peptide no. 42): 246 AU

B2: NARA1 (antibody, mouse IgG2a, kappa)
heavy: QVQLQQSGAELVRPGTSVKVSCKASGYAFTNYLIEWVKQRPGQGLEWIGVINPGSGGTNYNEKFKGKATLTADKSSSTAYMQLSSLTSDDSAVYFCARWRGDGYYAYFDVWGAGTTVTVSSAKTTAPSVYPLAPVCGDTTGSSVTLGCLVKGYFPEPVTLTWNSGSLSSGVHTFPAVLQSDLYTLSSSVTVTSSTWPSQSITCNVAHPASSTKVDKKIEPRGPTIKPCPPCKCPAPNLLGGPSVFIFPPKIKDVLMISLSPIVTCVVVDVSEDDPDVQISWFVNNVEVHTAQTQTHREDYNSTLRVVSALPIQHQDWMSGKEFKCKVNNKDLPAPIERTISKPKGSVRAPQVYVLPPPEEEMTKKQVTLTCMVTDFMPEDIYVEWTNNGKTELNYKNTEPVLDSDGSYFMYSKLRVEKKNWVERNSYSCSVVHEGLHNHHTTKSFSRTPGK
light: not shown
- signal intensity after subtraction of control signal (Reference peptide no. 53 [13]): 24 AU
- signal intensity after subtraction of control signal (Reference peptide no. 54 [14]): 0 AU
